Measurements: the nanobody polyreactivity screen of Harvey et al. (2022)

assay: yeast display, Sf9 membrane polyspecificity reagent, FACS + sequencing; frameworks hold sequencing errors
Method in brief: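 Using colony PCR, genes from sorted yeast display clones were amplified, then sequenced on MiSeq at 2 × 250 and filtered by CDR length. The clones had been stained with 10% biotinylated, detergent-solubilized Sf9 membrane reagent for 1 hour at 4 °C and sorted by FACS into low and high (top ~1%) gates on anti-HA and streptavidin fluorescence. Polyreactivity labels come from the gate of origin.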

Sequence	polyreactivity (PSR sort gate)
QVQLVESGGGLVQAGGSLRLSCAASGSTFTQYVMGWYRQAPGKERELVAAISDSGSTYYADSVKGRFTISRDNAKNTVYLQMNSLKPEDTAVYYCNADDVEFYYGYGYLDYDYWGQGTQVTVSS	low polyreactivity
QVQLVESGGGLVQAGGSLRLSCAASGSTFYFNAMGWYRQAPGKERELVAGIRYSGSSTYYADSVKGRFTISRDNAKNTVYLQMNSLKPVDTAVYYCAASLWRWRFSGFGYWGQGTQVTVSS	high polyreactivity
QVQLVESGGGLVQAGGSLRLSCAASGSIFDDYAMGWYRQAPGKERELVAAISSSGTSTYYADSVKGRFTISRDNAKNTVYLQMNSLKPEDTAVYYCAARSAILKSGYLMDYWGQGTQVTVSS	low polyreactivity
QVQLVESGGGLVQAGGSLRFSCAASGSILYGYAIGWYRQAPGQETELVAAIRLTGGSTYYADSVKGRFTISRDNAKNTVYLQMNSLKPEDTAVYYCAAEYNLRNYWGDYWGQGTLVTVSS	low polyreactivity
KVQLVESGGGLVQAGGSLRLSCAASGITFYDYDMGWYRQEHGKERELVSAITWNGGSTYYADSVKGRFTISRDNAKNTVYLQMNSLKPVDTAVYYCAAESYYIYYYWGQGTQVTVSS	high polyreactivity
QVQLVESGGGLVQAGGTLRLSCAACGRTFPINAMAWYRQAPGKERELVASIRWTDGTTYYADSVKGRFTISRDNAKNTVYLQMNSLKPEDTAVYYCAADAEGSASKYDYWGQGTQVTVSS	low polyreactivity
QVQLVESGGGLVQAGGSLRLSCAASGITFVPYAMGWYRQAPGKERELVAAISSSGGSTYYADSVKGRFTISRDNAKNTVYLQMNSLKPEDTAVYYCNVRTHSYIGMDYWGQGTQVTVSS	low polyreactivity
QVQLVESGGGLVQAGGSLRLSSAPSGSTFYGYSRGWYRPAPGKERELVAAISSRGGSTKYADSVKGRFTISRDNAKNTVYLQMNSLKPEDTAVYYCAATSRSSRRYYYWGQGTQVTVSS	high polyreactivity
QVQLVESGGGLVQAGGSLRLSCASSGRIFRYYAMGWYRQAPGKERELVAAINWSGGSTYYADSVKGRFTISRDNAKNTVYLQMNSLNPEDTAVYYCYRRAYIRYDSSSLDYWGQGTQVTVSS	low polyreactivity
QVQLVESGGGLVQAGGSLRLSCAASGLIFYRYAMGWYRQAPGKERELVAAISSGGSTYYADSVKGRFTISRDNAKNTVYLQMNSLKPEDTAVYYCNAKVYGRRYDYWGQGTQVTVSS	high polyreactivity
QVQLVESGGGLVQAGGSLRLSCAASGSTFDRNVMGWNRQAPGKERELVAAISRVSSTNYADSVKGRFTISRDNAKNTVYLQMHSLKPEDTAVYYCAADRAGSIMNYWGQGSQVTVSS	low polyreactivity
QVQLVESGGGLVQAGGSLRLSCAASGFNIYYYTMGWYRQAPGKERELVAAISKSGGNTYYADSVKGRFTISRDNAKNTVYLQMNSLKPEDTAVYYCAASRYNTVTYYYWGQGTQVTVSS	high polyreactivity
QVQLVESGGGLVQAGGSLRLSCAASGFIFRSYAMGWYRQAPGKERELVAAISDGGGSTYYADSVKGRFTISRDNAKKTVYLQMNSLKPEDTAVYYCNAVYHPKGPSGYGYWGQGTQVTVSS	low polyreactivity
QVQLVESGGGLVQAGGSLRLSCAASGSIFGSNGMGWSRQAPGKERELVAAISSGDSTNYADSVKGRFTISRDNAKNTVYLQMNSLKPEDTAVYSCERWGLGDYWGQGTQVTVSS	low polyreactivity
QVQLVESGGGLVQAGGSLRLSCAASGRTFVTNAMGWYRQAPGKERELVATINWSGGRTHYADSVKGRFTISRDNAKNTVYLQMNSLKPEDTEVYYCAKASSRRYWTIRDGDYWGQGTQVTVSS	low polyreactivity
QVQLVESGGGLVQAGGSLRLSCAASGRTLSKNAMGWYRQAPGKERELVATISSVGRTNYADSVKGRFTISRDNAKNTVYLQMNSLKPVDTAVYYCAARRFRGSYYWGLGTQVTVSS	high polyreactivity
QVQLVESGGVLVQAGGSLRLSCAASGSIYTWYAMGWYRQAPGKERELVAAITRGGSTYADSVKGRFTISRENAKNTVYLQMNSLKPEDTAVYYCNAVYGVYDFNYWGQGTQVTVSS	low polyreactivity
